Laboratory results from PMC12309418.
Values belong to the substance of their own block, whether it stands above or below them.

Tests used:
[1] = target: fluorescein-maleimide labeled ABD2 of PLS2 (human); test: fluorescence polarisation; stopped-flow fluorescence anisotropy kinetics, 25 °C, buffer pH 8.0; association: FM-ABD2 (50 or 100 nM) with at least 10-fold excess of the unlabeled RD-ABD1 construct (pseudo-first-order); dissociation: 25 or 50 nM FM-ABD2 bound to 50 or 100 nM RD-ABD1 construct, competed with 7.5 to 20 μM unlabeled ABD2; Kd calculated from koff and kon
[2] = target: fluorescein-maleimide labeled ABD2 of PLS2 (human); test: fluorescence polarisation; equilibrium fluorescence anisotropy in a plate reader, 10 nM FM-ABD2 with increasing RD-ABD1, 60 min at 22 °C, PLS buffer pH 7.0, quadratic isotherm fit
[3] = target: fluorescein-maleimide labeled ABD2 of PLS2 (human); test: fluorescence polarisation; stopped-flow fluorescence anisotropy kinetics, 25 °C, buffer pH 7.8; association: FM-ABD2 (50 or 100 nM) with at least 10-fold excess of unlabeled RD-ABD1 (pseudo-first-order); dissociation: 25 or 50 nM FM-ABD2 bound to 50 or 100 nM RD-ABD1, competed with 7.5 to 20 μM unlabeled ABD2; Kd calculated from koff and kon
[4] = target: fluorescein-maleimide labeled ABD2 of PLS2 (human); test: fluorescence polarisation; stopped-flow fluorescence anisotropy kinetics, 25 °C, buffer pH 7.4; association: FM-ABD2 (50 or 100 nM) with at least 10-fold excess of unlabeled RD-ABD1 (pseudo-first-order); dissociation: 25 or 50 nM FM-ABD2 bound to 50 or 100 nM RD-ABD1, competed with 7.5 to 20 μM unlabeled ABD2; Kd calculated from koff and kon
[5] = target: fluorescein-maleimide labeled ABD2 of PLS2 (human); test: fluorescence polarisation; stopped-flow fluorescence anisotropy kinetics, 25 °C, buffer pH 6.6; association: FM-ABD2 (50 or 100 nM) with at least 10-fold excess of unlabeled RD-ABD1 (pseudo-first-order); dissociation: 25 or 50 nM FM-ABD2 bound to 50 or 100 nM RD-ABD1, competed with 7.5 to 20 μM unlabeled ABD2; Kd calculated from koff and kon
[6] = target: fluorescein-maleimide labeled ABD2 of PLS2 (human); test: fluorescence polarisation; stopped-flow fluorescence anisotropy kinetics, 25 °C, buffer pH 7.0; association: FM-ABD2 (50 or 100 nM) with at least 10-fold excess of the unlabeled RD-ABD1 construct (pseudo-first-order); dissociation: 25 or 50 nM FM-ABD2 bound to 50 or 100 nM RD-ABD1 construct, competed with 7.5 to 20 μM unlabeled ABD2; Kd calculated from koff and kon
[7] = target: fluorescein-maleimide labeled ABD2 of PLS2 (human); test: fluorescence polarisation; equilibrium fluorescence anisotropy in a plate reader, 10 nM FM-ABD2 with increasing RD-ABD1, 60 min at 22 °C, PLS buffer pH 8.0, quadratic isotherm fit
[8] = target: Skeletal actin, filamentous (F-actin) (rabbit) (UniProt P68135)
[9] = target: PLS2 RD-ABD1 (a.a. 1-385) (human) (UniProt P13796); test: fluorescence polarisation; stopped-flow fluorescence anisotropy, 25 °C, PLS buffer pH 7.0; association of FM-ABD2 (50 or 100 nM) with excess RD-ABD1 (kon from the slope of kobs, line forced through koff); dissociation by competition with 7.5 to 20 uM unlabeled ABD2 (koff)
PLS2 RD-ABD1 (a.a. 1-385) (human), sequence (P13796 1-385): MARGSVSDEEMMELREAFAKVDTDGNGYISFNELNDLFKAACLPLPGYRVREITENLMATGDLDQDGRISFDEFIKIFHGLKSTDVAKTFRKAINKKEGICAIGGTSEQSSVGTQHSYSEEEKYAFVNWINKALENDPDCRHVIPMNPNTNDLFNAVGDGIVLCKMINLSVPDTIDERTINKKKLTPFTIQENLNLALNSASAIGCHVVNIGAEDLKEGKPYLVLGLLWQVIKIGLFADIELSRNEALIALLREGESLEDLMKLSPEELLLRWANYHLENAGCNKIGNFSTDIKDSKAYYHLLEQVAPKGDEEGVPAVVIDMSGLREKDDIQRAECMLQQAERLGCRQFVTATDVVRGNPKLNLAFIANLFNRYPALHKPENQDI

[10] = target: Skeletal actin, filamentous (F-actin) (rabbit) (UniProt P68135); test: fluorescence polarisation; equilibrium fluorescence anisotropy, pH 8.0, PLS buffer, 22 °C, 60 min; 5 nM FM-ABD2 with F-actin stabilized with 1.0 μM phalloidin; quadratic isotherm
[11] = target: Skeletal actin, filamentous (F-actin) (rabbit) (UniProt P68135); test: fluorescence polarisation; stopped-flow fluorescence anisotropy kinetics, pH 7.0, 25 °C; association: FM-ABD2 (50 or 100 nM) with at least 10-fold F-actin; dissociation: from phalloidin-stabilized F-actin with excess unlabeled ABD2; Kd from koff and kon
[12] = target: PLS2 RD-ABD1 (a.a. 1-385) (human) (UniProt P13796); test: fluorescence polarisation; stopped-flow fluorescence anisotropy, 25 °C, PLS buffer pH 7.4; association of FM-ABD2 (50 or 100 nM) with excess RD-ABD1 (kon from the slope of kobs, line forced through koff); dissociation by competition with 7.5 to 20 uM unlabeled ABD2 (koff)
[13] = target: PLS2 RD-ABD1 (a.a. 1-385) (human) (UniProt P13796); test: fluorescence polarisation; stopped-flow fluorescence anisotropy kinetics of FM-ABD2 with RD-ABD1, 25 °C, pH 6.6 to 8.0 (the text tells the results for the whole pH range together); dissociation with excess unlabeled ABD2
[14] = target: Skeletal actin, filamentous (F-actin) (rabbit) (UniProt P68135); test: fluorescence polarisation; stopped-flow fluorescence anisotropy kinetics, pH 7.4, 25 °C; association: FM-ABD2 (50 or 100 nM) with at least 10-fold F-actin; dissociation: from phalloidin-stabilized F-actin with excess unlabeled ABD2; Kd from koff and kon
[15] = target: Skeletal actin, filamentous (F-actin) (rabbit) (UniProt P68135); test: fluorescence polarisation; equilibrium fluorescence anisotropy, pH 7.0, PLS buffer, 22 °C, 60 min; 5 nM FM-ABD2 with F-actin stabilized with 1.0 μM phalloidin; quadratic isotherm
[16] = target: Skeletal actin, filamentous (F-actin) (rabbit) (UniProt P68135); test: fluorescence polarisation; equilibrium fluorescence anisotropy in a plate reader, 5 nM FM-ABD2 with F-actin stabilized with 1.0 uM phalloidin, PLS buffer pH 7.0, 22 °C, quadratic isotherm
[17] = target: PLS2 RD-ABD1-H207Y (human) (UniProt P13796); test: fluorescence polarisation; stopped-flow fluorescence anisotropy kinetics of FM-ABD2 with RD-ABD1-H207K and RD-ABD1-H207Y, 25 °C, pH 7.0 and 8.0 (fold changes for both pH values together); dissociation with excess unlabeled ABD2
[18] = target: PLS2 RD-ABD1-H207K (human) (UniProt P13796); test: as above
[19] = target: Skeletal actin, filamentous (F-actin) (rabbit) (UniProt P68135); test: fluorescence polarisation; stopped-flow fluorescence anisotropy kinetics, pH 6.6, 25 °C; association: FM-ABD2 (50 or 100 nM) with at least 10-fold F-actin; dissociation: from phalloidin-stabilized F-actin with excess unlabeled ABD2; Kd from koff and kon
[20] = target: Skeletal actin, filamentous (F-actin) (rabbit) (UniProt P68135); test: fluorescence polarisation; equilibrium fluorescence anisotropy in a plate reader, 5 nM FM-ABD2 with F-actin stabilized with 1.0 uM phalloidin, PLS buffer pH 8.0, 22 °C, quadratic isotherm
[21] = target: Skeletal actin, filamentous (F-actin) (rabbit) (UniProt P68135); test: fluorescence polarisation; stopped-flow fluorescence anisotropy kinetics, pH 7.8, 25 °C; association of FM-ABD2 (50 or 100 nM) with at least 10-fold F-actin; koff could not be measured
[22] = target: Skeletal actin, filamentous (F-actin) (rabbit) (UniProt P68135); test: fluorescence polarisation; stopped-flow fluorescence anisotropy kinetics, pH 8.0, 25 °C; association of FM-ABD2 (50 or 100 nM) with at least 10-fold F-actin; koff could not be measured
[23] = target: PLS2 RD-ABD1 (a.a. 1-385) (human) (UniProt P13796); test: fluorescence polarisation; stopped-flow fluorescence anisotropy, 25 °C, PLS buffer pH 8.0; association of FM-ABD2 (50 or 100 nM) with excess RD-ABD1 (kon from the slope of kobs, line forced through koff); dissociation by competition with 7.5 to 20 uM unlabeled ABD2 (koff)
[24] = target: PLS2 RD-ABD1 (a.a. 1-385) (human) (UniProt P13796); test: fluorescence polarisation; equilibrium fluorescence anisotropy, pH 7.0, PLS buffer, 22 °C, 60 min; 10 nM FM-ABD2 with RD-ABD1; quadratic isotherm
[25] = target: Skeletal actin, filamentous (F-actin) (rabbit) (UniProt P68135); test: fluorescence polarisation; stopped-flow fluorescence anisotropy kinetics, pH 6.8, 25 °C; association: FM-ABD2 (50 or 100 nM) with at least 10-fold F-actin; dissociation: from phalloidin-stabilized F-actin with excess unlabeled ABD2; Kd from koff and kon
[26] = target: PLS2 RD-ABD1 (a.a. 1-385) (human) (UniProt P13796); test: fluorescence polarisation; stopped-flow fluorescence anisotropy, 25 °C, PLS buffer pH 6.6; association of FM-ABD2 (50 or 100 nM) with excess RD-ABD1 (kon from the slope of kobs, line forced through koff); dissociation by competition with 7.5 to 20 uM unlabeled ABD2 (koff)
[27] = target: PLS2 RD-ABD1 (a.a. 1-385) (human) (UniProt P13796); test: fluorescence polarisation; stopped-flow fluorescence anisotropy, 25 °C, PLS buffer pH 7.8; association of FM-ABD2 (50 or 100 nM) with excess RD-ABD1 (kon from the slope of kobs, line forced through koff); dissociation by competition with 7.5 to 20 uM unlabeled ABD2 (koff)

PLS2 RD-ABD1 (a.a. 1–385), sequence (P13796 1-385): as above
PLS2-core (a.a. 83–627), sequence (P13796 83-627): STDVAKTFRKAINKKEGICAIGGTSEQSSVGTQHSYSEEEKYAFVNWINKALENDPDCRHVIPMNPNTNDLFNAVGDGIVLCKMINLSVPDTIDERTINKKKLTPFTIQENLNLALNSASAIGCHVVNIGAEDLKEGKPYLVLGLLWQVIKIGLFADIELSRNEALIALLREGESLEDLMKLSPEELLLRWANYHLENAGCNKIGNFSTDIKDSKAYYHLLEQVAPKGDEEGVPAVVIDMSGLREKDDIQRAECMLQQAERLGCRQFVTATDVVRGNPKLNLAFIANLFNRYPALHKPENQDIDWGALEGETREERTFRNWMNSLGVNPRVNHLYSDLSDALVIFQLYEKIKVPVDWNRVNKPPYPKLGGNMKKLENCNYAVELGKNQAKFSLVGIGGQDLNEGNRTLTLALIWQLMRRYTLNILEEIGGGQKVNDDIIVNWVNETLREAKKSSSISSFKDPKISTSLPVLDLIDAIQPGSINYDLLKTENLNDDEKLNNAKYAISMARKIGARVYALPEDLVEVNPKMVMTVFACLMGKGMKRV

Substance: PLS2 RD-ABD1 (a.a. 1–385) (from UniProt P13796 1-385) (domain or fragment)
Kd [1]: 7.6 nM
koff [1]: 0.008 s⁻¹
kon [1]: 1.01e+06 M⁻¹ s⁻¹
Kd [2]: 4.5 nM
Kd [3]: 7.7 nM
koff [3]: 0.008 s⁻¹
kon [3]: 1.07e+06 M⁻¹ s⁻¹
Kd [4]: 11 nM
koff [4]: 0.013 s⁻¹
kon [4]: 1.24e+06 M⁻¹ s⁻¹
Kd [5]: 5.1 nM
koff [5]: 0.01 s⁻¹
kon [5]: 1.94e+06 M⁻¹ s⁻¹
Kd [6]: 5.7 nM
koff [6]: 0.009 s⁻¹
kon [6]: 1.6e+06 M⁻¹ s⁻¹
Kd [7]: 8.7 nM

Substance: PLS2 RD-ABD1-H207K (from UniProt P13796 1-385) (domain or fragment)
kon [1]: 1.12e+06 M⁻¹ s⁻¹
Kd [6]: 24 nM
koff [6]: 0.039 s⁻¹
kon [6]: 1.59e+06 M⁻¹ s⁻¹

Results, then the substance that gave them:

Kd [1]: 2.2 nM
koff [1]: 0.0026 s⁻¹
kon [1]: 1.21e+06 M⁻¹ s⁻¹
Kd [6]: 1.1 nM
koff [6]: 0.0021 s⁻¹
kon [6]: 1.87e+06 M⁻¹ s⁻¹
Substance: PLS2 RD-ABD1-H207Y (from UniProt P13796 1-385) (domain or fragment)

fold decrease in F-actin bundling by PLS2-core (light scattering; low-speed centrifugation), pH 8.0 against pH 7.0 [8]: 2 fold
Substance: PLS2-core (a.a. 83–627) (from UniProt P13796 83-627) (domain or fragment)

koff [9]: 0.00905 s⁻¹
kon [9]: 1.6e+06 M⁻¹ s⁻¹
Kd [10]: 1.7 nM
Kd [11]: 9.5 nM
koff [11]: 0.0057 s⁻¹
kon [11]: 600000 M⁻¹ s⁻¹
koff [12]: 0.0135 s⁻¹
kon [12]: 1.24e+06 M⁻¹ s⁻¹
fold slower kon at pH 8.0 than at pH 6.6 [13]: 2 fold
koff [13]: 0.008 s⁻¹
Kd [14]: 12 nM
koff [14]: 0.0073 s⁻¹
kon [14]: 601000 M⁻¹ s⁻¹
Kd [15]: 5 nM
Kd [16]: 2.88 nM
fold change of kon against WT RD-ABD1 [17]: < 1.2 fold
fold decrease of koff against WT RD-ABD1 [17]: 3 to 4 fold
fold change of kon against WT RD-ABD1 [18]: < 1.2 fold
fold increase of koff against WT RD-ABD1 [18]: 4 to 12 fold
Kd [19]: 15 nM
koff [19]: 0.0073 s⁻¹
kon [19]: 479000 M⁻¹ s⁻¹
Kd [20]: 0.613 nM
kon [21]: 1.28e+06 M⁻¹ s⁻¹
kon [22]: 1.45e+06 M⁻¹ s⁻¹
koff [23]: 0.0077 s⁻¹
kon [23]: 1.01e+06 M⁻¹ s⁻¹
fold stronger association at pH 7.0 than at pH 8.0 [24]: 2 fold
Kd [25]: 13 nM
koff [25]: 0.0066 s⁻¹
kon [25]: 502000 M⁻¹ s⁻¹
koff [26]: 0.00992 s⁻¹
kon [26]: 1.94e+06 M⁻¹ s⁻¹
koff [27]: 0.00826 s⁻¹
kon [27]: 1.07e+06 M⁻¹ s⁻¹
Substance: fluorescein-maleimide labeled PLS2 ABD2 (FM-ABD2) (domain or fragment)
